Test results from the DeepSol protein solubility set.

Assay: soluble on expression in E. coli; label from the status in PepcDB or PDB records

Soluble on expression in E. coli, soluble:
MTIGIDKINFYVPKYYVDMAKLAEARQVDPNKFLIGIGQTEMAVSPVNQDIVSMGANAAKDIITDEDKKKIGMVIVATESAVDAAKAAAVQIHNLLGIQPFARCFEMKEACYAATPAIQLAKDYLATRPNEKVLVIATDTARYGLNSGGEPTQGAGAVAMVIAHNPSILALNEDAVAYTEDVYDFWRPTGHKYPLVDGALSKDAYIRSFQQSWNEYAKRQGKSLADFASLCFHVPFTKMGKKALESIIDNADETTQERLRSGYEDAVDYNRYVGNIYTGSLYLSLISLLENRDLQAGETIGLFSYGSGSVVEFYSATLVEGYKDHLDQAAHKALLNNRTEVSVDAYETFFKRFDDVEFDEEQDAVHEDRHIFYLSNIENNVREYHRPE
MTIGQKNTNIDPRFPHHHPRPQSFWEARAKALESLLIEKGHLSSDAIERVIKHYEHELGPMNGAKVVAKAWTDPAFKQRLLEDSETVLRELGYYGLQGEHIRVVENTDTVHNVVVCTLCSCYPWPLLGLPPSWYKEPAYRARVVKEPRQVLKEFGLDLPDSVEIRVWDSSSEIRFMVLPQRPEGTEGMTEEELAKLVTRDSMIGVAKIEPPKVTVG
MTIIAGTVVKGKQLGRKLGFPTANVDAKIHGLRNGVYGVLATVNHQFHLGVMNIGVKPTVGSNLEKTLEIFLFDFHRDIYGEKIECSILFKIREERRFDSLESLTKQIKKDISCVAKRFELIGIMAPNKKESLLSHQELNLPDLCFYKKCNNLYGVNRGVYNVIDNWFFEYGITQVAYRRIYILSFLSFLKEDNPKVSSKYIRFGAGGLADKLNRFISSYVEESEENILGLEHHHHHH
MTIKTPTVKVPGLGTDPLEQRIKEKEKKWKYKIAVLSGKGGVGKSTVAVNLTAALAKMGYFVGILDADIHGPNVAKMLGVDKEEVYAEKFDDGHFEMIPPTTDFMGQVTPIKVMSMGMMVPEDQPVIWRGPLVTKAIKQLLGDVKWGSLDFMIIDFPPGTGDEILTVVQSIKLDAAIIVTTPQEVALLDTGKAVNMMKKMEVPYVAVVENMSYLICPHCGNKIDIFGEGGGEKLAQKEGVDFLGKIPIDLKAREASDLGIPIVLYEDTPAAKAFMELAEKLVNKLKEIKGDGGKELEHHHHHH
MTIRVAINGFGRIGRNFLRCWFGRQNTDLEVVAINNTSDARTAAHLLEYDSVLGRFNADISYDENSITVNGKTMKIVCDRNPLNLPWKEWDIDLVIESTGVFVTAEGASKHIQAGAKKVLITAPGKAEGVGTYVIGVNDSEYRHEDFAVISNASCTTNCLAPVAKVLHDNFGIIKGTMTTTHSYTLDQRILDASHRDLRRARAAAVNIVPTTTGAAKAVALVIPELKGKLNGIALRVPTPNVSVVDLVVQVEKPTITEQVNEVLQKASQTTMKGIIKYSDLPLVSSDFRGTDESSIVDSSLTLVMDGDLVKVIAWYDNEWGYSQRVVDLAELAARKSGRLGLVQTLLISSQDSLPLTGGFFVAKREHPRSQDSINPSGPD
MTIYDINFAELYQQHLIACNHYNLPPIKWDKKAVKMAENLVGKPSAYNQQLLQAMNVQTDEAVLDIGCGPGTFAVPLAQQGSTVYALDYSNGMLDCLAQFKQKFGLHHLTTFHKSWADNWDDVPQADVVLASRSTLVDDLDDMIEKLCAKAKKRVFLTSVTQRHFLDEGVFEAIGREDIGFPTYIYLLNRLYQKGIQANLNFIETESGCFQGESYEDLLASVEFSLGELSEKEKQGLKAFYDRKQANNEPISHGQKKWALIWWNVDRILEHHHHHH
MTKINVPLETSNKTTSDLEKKKPFSVLLMGSDARPGETNGRADTIILATANKQQNAVEMVSIPRDTKVDYGNGDIGKINASYSNGGPSGTVSAVEKLMPGVPVDYFISINMEGFKDLVDAVGGITVYNDIDLTEVNSKFVKGNITLNGTDALQYVRIRHEDPRGDFGRQDRQRDVIIGIANKVISSSGVSNFESIMKAVGDNFQTNMTLTDITSMATNYSSVLKNVDSQELKGEGEMIYSESYGFDLYYFAPDETDLERVINMFKKSLDITELEHHHHHH
MTKKSTKSEAASKTKKSGVPETGAQGVRAGGADHADAAHLGTVNNALVNHHYLEEKEFQTVAETLQRNLATTISLYLKFKKYHWDIRGRFFRDLHLAYDEFIAEIFPSIDEQAERLVALGGSPLAAPADLARYSTVQVPQETVRDARTQVADLVQDLSRVGKGYRDDSQACDEANDPVTADMYNGYAATIDKIRWMLQAIMDDERLD
MTKVYIENYGCARNRADGEIMAGLLLSSGYEIVEGEENADIVVVNSCAVKDPTEVKIARRIRELLDRGKKVIVTGCLPHVNPDAIDERVSAVLGVKSIDRIVQAVEYALRGEKLISVPDWRKRNLDKLDFPRLSPRGVHFILPIAEGCLNGCTYCATRSARGVLKSYSPEKIVEWVKWAIRQGYKEIWLSAEDTGCYGFDIGTNLAKLLDEITAIEGEFRIRVGMMNPNHVLKFLDELIEAYKDEKVYKFLHLPVQSGDNEILRRMGRTYTVEEFEEIVNAFRREFPDLNLHTDIIVGFPGESEEAFQRSLELIKRIKPDKVNVSRYSPRPGTIAAKWKQLPGWVVKERSRIMHRVRLQISYEINQRYVGRKVDILVHGEGKKGNVDAVTMNYKHIIIPRGEKGEFARAKVNGATSTYLLGEIVD
MTKYRLSEEPRAFTYQVDGEKKSVLLRQVIAVTDFNDVKAGTSGGWVDAGNVLSQQGDCWIYDENAMAFAGTEITGNARITQPCSLYNNVRIGDNVWIDRSDISDGARISDNVTIQSSSVRGECAIYGDARVLNQSEILAVQGLTHEHAQILQIYDRATVNHSRIVHQVQLYGDATITLAFIEHRAEVFDFALIEGNKDNNVWICDCAKVYGHARVIAGTEEDAIPTLRYSSQVAEHALIEGNCVLKHHVLVGGHAEIRGGPILLDDRVLIEGQACIQGEILIEHQVEISGRATVIAFDGNTIHLRGPKVINGEDRITRTPLVGSLLEHHHHHH
MTLAATLREADLFRSLPKGFVQCRACAHYCALPEGGAGKCGVRRNLGGRLYLVTYGKAAALHLDPVEKKPLYHFHPGEGILSVGTVGCNLFCAFCQNWQISQFREFRVSPEGRLDRPIGEDWPPKRLVAEAEALGVRLLAYTYNEPAVWIEYAHDTARLAKARGMKNVFVTSGFETKEAWDYIRPHLDAANVDLKGFTEKFYREVCGARLKPVLESLGHLVASGVWVEVTTLLLEGYNDSDEEVRAMARFLKGLSPDIPWHLTAAHPDYRMLDLRSTRHATLVRAHAIAKEEGLRFVYVGNVLDEERNSTYCPNCGRLLVRRRGYRVEALWEAPGVCPGCGQRIPGVWTW

Soluble on expression in E. coli, not soluble:
MTIHIDFLDETNEVTAEQIETIERLLAEAAALENVPDGAEVSVTFVDNERIRAMNRDYRGKDAPTDVLSFALEEEGEEEVHIVGADMPPVLGDIVISIPKAKEQAAAYGHSFMRELGFLAVHGFLHLLGYDHGTEEEERVMFAKQEDILARFGLTR
MTILEELNDSSIPQRLDNHIFFGSVHSLTHTDFLVENNIRFFINVDLSTELISHIYHEVRSKFAHEIVIVNIDNDSQIPIESDLVRSFHWHNTSLLQQLIHHLDFLSGINNHGEPLTPPPESHYRNAYVQFDHPSDSVSILDKLLYGNKSEYSRTNIFQVTNEAKFQVFNDLITIFKYSIAQGGNTNSNILVLSENGSTDENLISLLMSTVLKENPTFNVYQALQFVKSIAVIPDTVRDEKILWVTGFINYQELIKKNEMYWGLGSQKGRKLTSFASPISKVERKQRRRDDQNIMRSKLPQQRQNPFCSTERPKRARCD
MTIYMFNNVNLQRQYMIDTIIFDFDGVILNSEPMHFEAIVQVLNQSGINLAYEEYMTHYLGLSDISLFPKILNDKGLAFSSTEIHQVIERKVRVYNELIENSEQLPMTPDLDWFLVRVARQYGKIGICSGSNRHSIIKILEKIHCGRLACYFKTIVSCEDVSLGKPSPEGYLLAAHRLQSKPENCLVIEDSEHGVAAAKAGGMLVAGLLTTLSRDLLANADMIVHDFKELDHLLNSH
MTKDLLLELGLEELPAYVVTPSEKQLGQKMVKFLEDHRLSFETVQIFSTPRRLAVRVKGLADQQTDLTEDFKGPSKKIALDAEGNFSKAAQGFVRGKGLSVDDIEFREVKGEEYVYVTKHETGKSAIDVLASVTEVLTELTFPVNMHWANNSFEYIRPVHTLVVLLDDQALELDFLDIHSGRISRGHRFLGSDTEISSASSYEDDLRQQFVIADAKERQQMIVNQIHAIEEKKNISVEIDEDLLNEVLNLVEYPTAFLGSFDEKYLDVPEEVLVTSMKNHQRYFVVRDRDGKLLPNFISVRNGNAEHIENVIKGNEKVLVARLEDGEFFWQEDQKLNIADLVEKLKQVTFHEKIGSLYEHMDRVKVISQYLAEKADLSDEEKLAVLRAASIYKFDLLTGMVDEFDELQGIMGEKYALLAGEQPAVAAAIREHYMPTSADGELPETRVGAILALADKFDTLLSFFSVGLIPSGSNDPYALRRATQGIVRILEAFGWDIPLDELVTNLYGLSFASLDYANQKEVMAFISARIEKMIGSKVPKDIREAVLESDTYI
MTKGKGRNPGASGLDKHLKRKTHLERSQPKSRQHLGQLEKHKDHVLRAKKRKVKVRRLQEIKRAAAQRNPDEFNIGMTKAVMDVANGRMRQRRVRLVESDRKKDMQTTIEHNRRNVQYLEFKAQADQQRATELLNEEAAAALTSTAPQNKHIVFVNSEEEFRSFNPLKHFDVTPEMMRQHPAVRGRIRVLEKTVMPEEILMSGGHQIKSAAQKRKERREVQEKMRRSGADATPETRAAFVERLRAKKELKQYQFTDLLEEVKRESEATASSSKGAPGDDGEQEEAAAQDEVTRLLEWRREQERQAAIATARHVREVGQRIQRSKSLSALAKSIRKQSQGIKRQMEQRRESRFKPGATRRAR
MTKKIIGIAGNQLLQAAEVFHGNQVTYTPQGFVSAVQAAGGVPLVLPIGPKELAATYIQQIDKLLLAGGQDVAPEFYGQEPHIKLEETNRDRDEFELALIEEALKQNKPIFAVCRGMQLVNVALGGTLYQDLSMYPQWSVKHGQQPTQPIFATHRIDVEPDSQLSNIYGTTGQVNSYHHQALHTLGKDLRVTAWSSDGLAEAVESTNEQQPLLAVQWHPELMYARDAKSQALFNYFVQKL
MTKPIVFQNARIIDPSRTIDEIGTVIVENGLIIAAGKEALNQGIPEGAEIINAQNKAILPGLVDARVFVGEPGNESRETLASASQSAAAGGITSFLMMPNTNPVIDNIALVKFITHTAQEISSVNIYPVAAITQGFNGQEIAEFGLLKDAGAVAFSEGKKTLQNSSVMRRAMTYARDFDVPLMHETQDKDLIGQGVMNEGLLASWLGLSGIPREAEVIPLERDLRLAALTQTRYHAAQISTALSADALRLSKQRSEKISAGVSINHLSFNENDIGEYRTSFRLIPPLRTEEDRIAMIEAIKDGTVDIIVSSHDPQSLDKKNLPFSEAAIGAIGMETLLSAALRLYHNGTISLLRLTELLSTTPAKLFDLNAGTLRKGTHADLILVDLDEPWIVSPEKLYSRSKNTPFEKAHFQGRVLQTFVKGQSIFKLDQ
MTLKLTYFDIHGLAEPIRLLLADKQVAYEDHRVTYEQWADIKPKMIFGQVPCLLSGDEEIVQSGAIIRHLARLNGLNGSNETETTFIDMFYEGLRDLHTKYTTMIYRNYEDGKAPYIKDVLPGELARLEKLFHTYKNGEHYVIGDKESYADYVLFEELDIHLILTPNALDGVPALKKFHERFAERPNIKAYLNKRAAINPPVNGNGKQ
